The source of these data is IntAct's records for PubMed 23664119.

The chains are these.
B1: Protein bicaudal D homolog 2 (Homo sapiens), Q8TD16 (parent)
chain: MSAPSEEEEYARLVMEAQPEWLRAEVKRLSHELAETTREKIQAAEYGLAVLEEKHQLKLQFEELEVDYEAIRSEMEQLKEAFGQAHTNHKKVAADGESREESLIQESASKEQYYVRKVLELQTELKQLRNVLTNTQSENERLASVAQELKEINQNVEIQRGRLRDDIKEYKFREARLLQDYSELEEENISLQKQVSVLRQNQVEFEGLKHEIKRLEEETEYLNSQLEDAIRLKEISERQLEEALETLKTEREQKNSLRKELSHYMSINDSFYTSHLHVSLDGLKFSDDAAEPNNDAEALVNGFEHGGLAKLPLDNKTSTPKKEGLAPPSPSLVSDLLSELNISEIQKLKQQLMQMEREKAGLLATLQDTQKQLEHTRGSLSEQQEKVTRLTENLSALRRLQASKERQTALDNEKDRDSHEDGDYYEVDINGPEILACKYHVAVAEAGELREQLKALRSTHEAREAQHAEEKGRYEAEGQALTEKVSLLEKASRQDRELLARLEKELKKVSDVAGETQGSLSVAQDELVTFSEELANLYHHVCMCNNETPNRVMLDYYREGQGGAGRTSPGGRTSPEARGRRSPILLPKGLLAPEAGRADGGTGDSSPSPGSSLPSPLSDPRREPMNIYNLIAIIRDQIKHLQAAVDRTTELSRQRIASQELGPAVDKDKEALMEEILKLKSLLSTKREQITTLRTVLKANKQTAEVALANLKSKYENEKAMVTETMMKLRNELKALKEDAATFSSLRAMFATRCDEYITQLDEMQRQLAAAEDEKKTLNSLLRMAIQQKLALTQRLELLELDHEQTRRGRAKAAPKTKPATPSL

Variants of B1 are the subject of test [1]. Particulars: with rab6a_human RAB6A.
In test [2] the parent is B1. Particulars: with dc1i1_human DYNC1I1, O14576.
Variants of B1 are the subject of test [3]. Particulars: with rab6a_human RAB6A. This is another data set of the same source.

dc1i1_human DYNC1I1, O14576, sequence (O14576 whole entry): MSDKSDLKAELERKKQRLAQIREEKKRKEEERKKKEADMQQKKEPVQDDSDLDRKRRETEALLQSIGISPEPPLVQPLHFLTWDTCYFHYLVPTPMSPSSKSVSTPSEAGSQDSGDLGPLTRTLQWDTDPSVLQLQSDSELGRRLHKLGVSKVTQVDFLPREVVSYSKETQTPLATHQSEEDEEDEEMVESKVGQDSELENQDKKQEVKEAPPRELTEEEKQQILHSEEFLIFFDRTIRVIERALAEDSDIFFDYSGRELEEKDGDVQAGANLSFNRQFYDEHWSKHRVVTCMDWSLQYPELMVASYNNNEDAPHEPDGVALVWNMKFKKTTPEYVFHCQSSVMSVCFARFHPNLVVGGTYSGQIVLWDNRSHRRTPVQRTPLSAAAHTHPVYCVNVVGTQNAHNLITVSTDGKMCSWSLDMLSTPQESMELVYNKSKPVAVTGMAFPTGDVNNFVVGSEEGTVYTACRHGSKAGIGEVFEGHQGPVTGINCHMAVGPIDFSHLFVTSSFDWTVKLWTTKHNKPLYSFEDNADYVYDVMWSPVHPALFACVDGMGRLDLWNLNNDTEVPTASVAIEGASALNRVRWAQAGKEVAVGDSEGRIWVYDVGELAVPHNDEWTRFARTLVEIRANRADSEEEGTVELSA

E774G: the “effect of a mutation on the interaction” value in test [1] is “decreasing interaction strength”.
With S107L, the “effect of a mutation on the interaction” value in test [2] was “increasing interaction strength”; in test [1], “with no effect”; in test [3], “decreasing interaction strength”.
